Data from patent US10336829B2, “Intracellular delivery compounds” (Sorrento Therapeutics, Inc., priority 2015, dated 2019).

Key:
MCF-10A cells = assay: Caveolin and clathrin-dependent compound 901a uptake in MCF-10A cells; format: cell-based, human; settings: 30 min pretreatment
Excerpt: Clathrin-mediated endocytosis is mediated by small vesicles that have a morphologically characteristic coat made up of a complex of proteins that are mainly associated with the cytosolic protein clathrin. Caveolae are the most common reported non-clathrin-coated plasma membrane buds, which exist on the surface of many, but not all cell types. They consist of the cholesterol-binding protein caveolin (Vip21) with a bilayer enriched in cholesterol and glycolipids. Both clathrin mediated endocytosis and caveolae transport extracellular molecules into the cell. 5,000 cells were seeded per well in a 96 well plate, overnight. Cells were pretreated with the clathrin inhibitor Pitstop2 (30 uM or 60 uM) or the caveolin inhibitor filipin (0.5 ug/ml or 1.0 ug/ml) for 30 minutes. […] Cells were fixed and imaged with IncuCyte. DMSO and antibody only were used as controls.

[1] = tested on: cellular antigens in U251 cells; assay: Cell binding of naked ST3G12 versus compound 901a in permeabilized U251 cells (HTFC); settings: 45 min room temperature, PE anti-human IgG
Protocol: After 45 minutes at room temperature, cells were washed twice and incubated with phycoerythrin (PE) conjugated-anti-human IgG for 20 minutes at room temperature in the dark. Cells were then washed and analyzed by high throughput flow cytometry (HTFC). The results are shown in FIG. 9 for assessment of antibody binding to cellular antigens in U251 cells.

STAT3 [2] = target: T1, STAT3 (Homo sapiens, UniProt P40763); assay: IL-6-stimulated STAT3 phosphorylation ELISA in MCF-10A and MCF-7 cells; format: cell-based; parameters: endogenous in cells; settings: overnight pre-treatment, IL-6 10 or 40 ng/ml 20 min
T1 sequence (P40763 whole entry): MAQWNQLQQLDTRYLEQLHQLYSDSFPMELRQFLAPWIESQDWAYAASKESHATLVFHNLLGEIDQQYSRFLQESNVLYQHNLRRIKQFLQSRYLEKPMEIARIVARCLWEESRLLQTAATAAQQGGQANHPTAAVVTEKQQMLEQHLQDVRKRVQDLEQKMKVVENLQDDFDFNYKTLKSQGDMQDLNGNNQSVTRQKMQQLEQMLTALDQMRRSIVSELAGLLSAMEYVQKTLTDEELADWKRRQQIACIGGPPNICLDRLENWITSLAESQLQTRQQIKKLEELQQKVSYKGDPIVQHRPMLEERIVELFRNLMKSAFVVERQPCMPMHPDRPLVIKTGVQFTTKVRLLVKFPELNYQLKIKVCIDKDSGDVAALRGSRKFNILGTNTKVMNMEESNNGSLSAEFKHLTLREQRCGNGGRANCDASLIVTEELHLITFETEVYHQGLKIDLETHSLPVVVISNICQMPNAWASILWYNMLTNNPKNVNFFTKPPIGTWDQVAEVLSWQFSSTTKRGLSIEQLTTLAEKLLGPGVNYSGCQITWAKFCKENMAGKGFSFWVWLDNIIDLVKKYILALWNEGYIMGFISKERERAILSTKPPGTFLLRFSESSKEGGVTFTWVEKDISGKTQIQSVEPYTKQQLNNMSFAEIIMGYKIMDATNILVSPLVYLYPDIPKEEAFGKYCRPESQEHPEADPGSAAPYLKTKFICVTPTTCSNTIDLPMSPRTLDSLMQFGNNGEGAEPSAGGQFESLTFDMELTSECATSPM
Protocol: Cells were pre-treated overnight with antibody, and then stimulated with various concentrations of IL-6 for 20 minutes (10 ng/ml or 40 ng/ml). IL-6 is a STAT3 activator. Cells were then lysed and the protein lysates were subjected to ELISA to determine the phosphorylation status. […] “OS-AIP” refers to an oligosaccharide conjugated bacterial AIP protein, used as a control.

STAT3 [3] = target: T1, STAT3; assay: Cell binding assay of anti-STAT3 antibodies, fixed and permeabilized cells, flow cytometry; parameters: endogenous in cells; settings: MDA-MB-468 and U251 cells, serial dilutions, PE anti-human IgG
Protocol: Next, the binding of the candidate anti-STAT3 antibodies to cellular targets was tested in cell binding assays using MDA-MB-435 breast cancer cells and U251 cells. The cells were seeded overnight in a 96 well plate, then fixed with PFA and permeabilized with methanol. Cells were incubated with serial dilutions of the anti-STAT3 antibody candidates ST1A5, ST3G12 and ST5G12 for one hour and 30 minutes. Following incubation, the cells were washed and incubated for 30 minutes with phycoerythrin (PE) conjugated anti-human IgG. Fluorescence was measured on an Intellicyte high-throughput flow cytometry analyzer. […] Bevacizumab (Avastin), a monoclonal antibody that inhibits vascular endothelial growth factor A (VEGF-A) was used as a negative control.

U251 cells = assay: Cell penetration in U251 cells by microscopy; format: cell-based; settings: 20 ug/mL, 2 hours at 37° C.
Protocol: Briefly, previously cleaned glass coverslips were coated with collagen for 2 hours at 37° C. 100,000 U251 cells were seeded on the coverslips. Media was removed, and cells were rinsed once with fluorobrite. Next, 20 ug/mL of the specified antibody was added for 2 hours at 37° C. Cells were fixed in 4% PFA for 15 minutes and then permeabilized with 0.1% TritonX for 15 minutes. Cells were blocked with 3% BSA for 30 minutes and 1:250 GAH-Alexa fluor 488 was added for 1 hour. Next, 200× wheat germ agglutinin Alexa fluor 555 (WGA 555) and 1:1000 DAPI was added for 30 minutes. Cells were washed 3× with PBS and mounted with prolong gold anti-fade.

STAT3 [4] = target: T1, STAT3; assay: Biacore T200 affinity to recombinant human STAT3-GST; settings: Biacore T200, 1:1 (Langmuir) binding model
Protocol: (§1) Anti-human Fc antibody (GE, BR-1008-39) was immobilized on a CMS sensor chip to approximately 1000 RU using standard NHS/EDC coupling methodology. Antibodies (approximately 10 ug/ml) were captured for 60 seconds at a flow rate of 10 ul/min Recombinant human STAT3-GST was serially diluted 2-fold into running buffer (HBS-EP+, starting from […]). All measurements were conducted at a flow rate of 30 ul/min Surfaces were regenerated with 3M MgCl2 (from human antibody kit) for 60 seconds. A 1:1 (Langmuir) binding model was used to fit the data.

GST protein = assay: Biacore binding to GST protein; settings: Biacore assay
Protocol: as §1

CCCCC[C@@H](O)[C@H]1C(=O)O[C@H](C)[C@@H](O)/C=C/C=C/C=C/C=C/C=C(\C)[C@@H](O)C[C@H](O)C[C@H](O)C[C@H](O)C[C@H](O)C[C@H](O)C[C@@H]1O [filipin]
effect of inhibitor on compound 901a uptake (MCF-10A cells; inhibitor 0.5 ug/ml): little effect
effect of inhibitor on compound 901a uptake (MCF-10A cells; inhibitor 1.0 ug/ml): greater effect

O=C1NC(=NS(=O)(=O)c2cccc3ccccc23)S/C1=C\c1ccc(Br)cc1 [PS2, Pitstop2]
effect of inhibitor on compound 901a uptake (MCF-10A cells; inhibitor 30 uM and 60 uM): inhibited compound 901a uptake

B1: ST3G12: Human anti-human STAT3 antibody; heavy chain variable SEQ ID NO: 3, light chain variable SEQ ID NO: 4 (antibody, V domains shown)
VH: QVQLVQSGAEVKKPGASVKVSCKASGYTFTSYYMHWVRQAPGQGLEWMGIINPSGGSTSYAQKFQGRVTMTRDTSTSTVYMELSSLRSEDTAVYYCARSDYVHSFDIWGQGTMVTVSS
VL: QPVLTQPPSASALLGASIKLTCTLSSEHSTYTVEWYQQRPGRSPQYIMNVKSDGSYNKGDGIPDRFMGSSSGADRYLTFSNLQSDDEAEYHCGESHRIDGQVGVVFGGGTKLTVL
binding to cellular antigens in U251 cells [1]: considerably lower
effect on STAT3 phosphorylation (STAT3 [2]): little to no effect
binding to STAT3 / cellular antigens (MFI) (STAT3 [3]): bound STAT3
cell penetration / internalization (U251 cells): no internalization
Rmax (STAT3 [4]): 174 RU
kd (STAT3 [4]): 0.000322 s⁻¹
ka (STAT3 [4]; STAT3-GST from 100 nm): 59700 M⁻¹ s⁻¹
binding to GST protein (GST protein): No binding
